Assay results from IntAct's records for PubMed 17024180.

B1: Tyrosine-protein kinase JAK2 (Mus musculus), Q62120 (parent)
chain: MGMACLTMTEMEATSTSPVHQNGDIPGSANSVKQIEPVLQVYLYHSLGQAEGEYLKFPSGEYVAEEICVAASKACGITPVYHNMFALMSETERIWYPPNHVFHIDESTRHDILYRIRFYFPHWYCSGSSRTYRYGVSRGAEAPLLDDFVMSYLFAQWRHDFVHGWIKVPVTHETQEECLGMAVLDMMRIAKEKDQTPLAVYNSVSYKTFLPKCVRAKIQDYHILTRKRIRYRFRRFIQQFSQCKATARNLKLKYLINLETLQSAFYTEQFEVKESARGPSGEEIFATIIITGNGGIQWSRGKHKESETLTEQDVQLYCDFPDIIDVSIKQANQECSNESRIVTVHKQDGKVLEIELSSLKEALSFVSLIDGYYRLTADAHHYLCKEVAPPAVLENIHSNCHGPISMDFAISKLKKAGNQTGLYVLRCSPKDFNKYFLTFAVERENVIEYKHCLITKNENGEYNLSGTKRNFSNLKDLLNCYQMETVRSDSIIFQFTKCCPPKPKDKSNLLVFRTNGISDVQISPTLQRHNNVNQMVFHKIRNEDLIFNESLGQGTFTKIFKGVRREVGDYGQLHKTEVLLKVLDKAHRNYSESFFEAASMMSQLSHKHLVLNYGVCVCGEENILVQEFVKFGSLDTYLKKNKNSINILWKLGVAKQLAWAMHFLEEKSLIHGNVCAKNILLIREEDRRTGNPPFIKLSDPGISITVLPKDILQERIPWVPPECIENPKNLNLATDKWSFGTTLWEICSGGDKPLSALDSQRKLQFYEDKHQLPAPKWTELANLINNCMDYEPDFRPAFRAVIRDLNSLFTPDYELLTENDMLPNMRIGALGFSGAFEDRDPTQFEERHLKFLQQLGKGNFGSVEMCRYDPLQDNTGEVVAVKKLQHSTEEHLRDFEREIEILKSLQHDNIVKYKGVCYSAGRRNLRLIMEYLPYGSLRDYLQKHKERIDHKKLLQYTSQICKGMEYLGTKRYIHRDLATRNILVENENRVKIGDFGLTKVLPQDKEYYKVKEPGESPIFWYAPESLTESKFSVASDVWSFGVVLYELFTYIEKSKSPPVEFMRMIGNDKQGQMIVFHLIELLKSNGRLPRPEGCPDEIYVIMTECWNNNVSQRPSFRDLSLRVDQIRDSIAA
partner: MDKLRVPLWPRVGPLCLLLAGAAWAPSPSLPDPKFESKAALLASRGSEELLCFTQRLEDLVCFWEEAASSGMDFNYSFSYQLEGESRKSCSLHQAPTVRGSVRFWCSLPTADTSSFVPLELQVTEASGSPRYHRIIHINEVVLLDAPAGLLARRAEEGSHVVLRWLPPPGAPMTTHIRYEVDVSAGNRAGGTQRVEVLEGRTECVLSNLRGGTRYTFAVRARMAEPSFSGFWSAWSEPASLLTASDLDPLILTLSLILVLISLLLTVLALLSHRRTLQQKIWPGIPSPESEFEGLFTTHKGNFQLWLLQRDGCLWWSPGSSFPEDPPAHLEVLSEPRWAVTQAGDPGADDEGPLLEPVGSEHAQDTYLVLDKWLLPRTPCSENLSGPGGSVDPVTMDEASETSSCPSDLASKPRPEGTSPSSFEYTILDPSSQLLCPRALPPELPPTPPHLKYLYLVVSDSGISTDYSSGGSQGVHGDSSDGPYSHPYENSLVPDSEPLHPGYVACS
B2: Tyrosine-protein kinase JAK2 (Mus musculus), Q62120 (parent)
chain: B1 chain
partner: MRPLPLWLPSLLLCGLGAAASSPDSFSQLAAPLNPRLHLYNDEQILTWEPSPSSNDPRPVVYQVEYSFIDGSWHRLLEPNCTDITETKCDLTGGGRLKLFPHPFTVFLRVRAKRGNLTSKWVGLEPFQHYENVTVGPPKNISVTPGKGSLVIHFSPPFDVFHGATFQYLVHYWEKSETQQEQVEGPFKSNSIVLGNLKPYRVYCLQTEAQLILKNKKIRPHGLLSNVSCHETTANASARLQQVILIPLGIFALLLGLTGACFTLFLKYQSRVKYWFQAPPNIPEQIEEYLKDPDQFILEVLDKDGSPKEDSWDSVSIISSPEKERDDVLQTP

Variants of: B1
Settings: with epor_mouse Epor

Variant	effect of a mutation on the interaction
Y119E	disrupting interaction
Y1007F	decreasing interaction

Variants of: B2
Settings: with Ifngr2, Q63953

Variant	effect of a mutation on the interaction
Y119E	decreasing interaction
Y1007F	decreasing interaction
